For 167 variants, abundance fitness results are on record in the Human Domainome abundance scans (Beltran et al. 2025).

± gives the uncertainty stated by the source.

B1: V(D)J recombination-activating protein 2, residues 415 to 491; numbered along this chain, P55895 (parent)
chain: YWITCCPTCDVDINTWVPFYSTELNKPAMIYCSHGDGHWVHAQCMDLAERTLIHLSAGSNKYYCNEHVEIARALHTP
B2: PDZ and LIM domain protein 2, residues 284 to 339; numbered along this chain, Q96JY6 (parent)
chain: HTCEKCSTSIANQAVRIQEGRYRHPGCYTCADCGLNLKMRGHFWVGDELYCEKHAR

Variants of B1 are the subject of one series. The experiment in a line: abundance fitness (aPCA) (normalised: wild type 0, dead -1); higher = more abundant; growth selection in yeast, the domain comes from the species named. The settings on record: Homo sapiens.
As for W2E, the abundance fitness was -0.231 ± 0.076.
For the variant W2G, the abundance fitness was -0.342 ± 0.051.
On the same count and under the same terms, as for W2A, the figure is -0.39 ± 0.07; as for W2I, -0.333 ± 0.26.
Same read-out and setting: as for W2H, the figure is -0.11 ± 0.19.
Still for that read-out and setting: as for Y1A, the figure is -0.188 ± 0.079; as for Y1E, -0.063 ± 0.2; as for Y1G, -0.102 ± 0.075.
Turning to Y1M, the abundance fitness is -0.041 ± 0.089.
On the same count and under the same terms, under Y1L stands -0.098 ± 0.087.
Same read-out and setting: under Y1K stands -0.365 ± 0.17.
The same measure, in the same setting: under Y1R stands -0.469 ± 0.24; under Y1N, -0.252 ± 0.17.
Regarding Y1D, the abundance fitness was -0.108 ± 0.21.
On the same count and under the same terms, as for Y1H, the figure is -0.399 ± 0.18.
As to Y1Q, the abundance fitness is -0.283 ± 0.22.
On to Y1S, for which the abundance fitness is -0.084 ± 0.053.
In the case of Y1F, the abundance fitness was -0.07 ± 0.11.
On the same count and under the same terms, under Y1W stands -0.19 ± 0.037; under Y1V, -0.008 ± 0.08; under Y1T, -0.098 ± 0.25.

In another series the parent is B2. The series is described as above. The settings on record: Homo sapiens.
On to A14I, for which the abundance fitness is -0.07 ± 0.099.
On the same count and under the same terms, under A14W stands -0.182 ± 0.12.
In the case of A14S, the abundance fitness was -0.179 ± 0.079.
Still for that read-out and setting: as for A14T, the figure is -0.468 ± 0.11.
On the same count and under the same terms, as for A14H, the figure is -0.247 ± 0.24; as for A14Q, -0.329 ± 0.12; as for F43L, -0.048 ± 0.066.
Same read-out and setting: under F43S stands -0.056 ± 0.084.
For the variant V15M, the abundance fitness was -0.283 ± 0.12.
Same read-out and setting: under V15I stands -0.105 ± 0.16.
In the case of E52I, the abundance fitness is -0.468 ± 0.14.
R56V: the abundance fitness was determined as 0.049 ± 0.14.
Same read-out and setting: as for R56C, the figure is 0.093 ± 0.3; as for T8S, 0.139 ± 0.086.
The same measure, in the same setting: as for T8A, the figure is 0.308 ± 0.06; as for Q18V, 0.008 ± 0.081.
Still for that read-out and setting: under Q18F stands -0.303 ± 0.087.
On to Q18I, for which the abundance fitness came out at 0.228 ± 0.18.
On the same count and under the same terms, as for Q18M, the figure is -0.253 ± 0.12.
The same measure, in the same setting: as for I10Q, the figure is -0.242 ± 0.083.
On the same count and under the same terms, as for I10K, the figure is -0.488 ± 0.13.
As to I10H, the abundance fitness was -0.735 ± 0.17.
Same read-out and setting: as for R16D, the figure is -0.091 ± 0.1.
Still for that read-out and setting: under R16C stands 0.32 ± 0.091; under R16Q, 0.308 ± 0.14.
Still for that read-out and setting: under R16V stands 0.146 ± 0.06.
In the case of R16G, the abundance fitness was -0.015 ± 0.06.
In the case of R16A, the abundance fitness worked out at 0.2 ± 0.083.
Still for that read-out and setting: under A11P stands 0.118 ± 0.11.
A11C: the abundance fitness was -0.446 ± 0.13.
Same read-out and setting: as for A11M, the figure is -0.521 ± 0.18; as for T2L, -0.834 ± 0.12; as for T2V, -0.685 ± 0.13.
The same measure, in the same setting: as for C51V, the figure is -1.17 ± 0.15; as for C51A, -0.669 ± 0.16; as for C51Q, -0.696 ± 0.35.
In the case of N12F, the abundance fitness was -0.494 ± 0.25.
On to N12T, for which the abundance fitness came out at 0.14 ± 0.071.
Regarding E48S, the abundance fitness was -0.074 ± 0.11.
The same measure, in the same setting: under E48I stands -0.174 ± 0.11; under E48Y, -0.235 ± 0.075; under E48G, 0.079 ± 0.079.
Still for that read-out and setting: as for G41P, the figure is -0.025 ± 0.12; as for G41H, -0.682 ± 0.36.
The same measure, in the same setting: under G41E stands -0.191 ± 0.088.
As for H1Q, the abundance fitness was -0.669 ± 0.25.
On the same count and under the same terms, under H1D stands -0.317 ± 0.48.
The same measure, in the same setting: as for G34E, the figure is -0.146 ± 0.16; as for G34K, 0.073 ± 0.089.
Same read-out and setting: as for D47W, the figure is -0.1 ± 0.059.
With D47T, the abundance fitness is -0.047 ± 0.068.
Consider D47H, for which the abundance fitness was -0.136 ± 0.098.
Same read-out and setting: as for D47G, the figure is -0.11 ± 0.075.
The same measure, in the same setting: as for T29V, the figure is -0.309 ± 0.076; as for T29E, -0.455 ± 0.15; as for T29S, -0.092 ± 0.081.
Still for that read-out and setting: under T29F stands -0.194 ± 0.18; under T29I, -0.004 ± 0.1; under A55E, -0.309 ± 0.16.
For the variant E4K, the abundance fitness is -0.362 ± 0.12.
On the same count and under the same terms, under E4L stands -0.473 ± 0.066.
On the same count and under the same terms, as for C27G, the figure is -0.514 ± 0.098; as for C27F, -1.02 ± 0.3; as for C27N, -0.826 ± 0.33.
On the same count and under the same terms, as for G46W, the figure is -0.429 ± 0.17; as for G46L, -0.134 ± 0.068.
For the variant C33A, the abundance fitness was -0.94 ± 0.072.
The same measure, in the same setting: as for W44T, the figure is -0.232 ± 0.14; as for S7G, 0.018 ± 0.056.
On the same count and under the same terms, as for S7E, the figure is -0.878 ± 0.26.
Turning to S7Y, the abundance fitness is -0.614 ± 0.2.
Still for that read-out and setting: as for P25F, the figure is -0.492 ± 0.1; as for P25T, -0.09 ± 0.095; as for P25L, 0.099 ± 0.054.
As for S9P, the abundance fitness is -0.376 ± 0.12.
The same measure, in the same setting: under Y50K stands 0.04 ± 0.078; under Y50N, -0.239 ± 0.17.
On the same count and under the same terms, as for L37M, the figure is -0.178 ± 0.1; as for L37H, -0.807 ± 0.17; as for L37A, -0.601 ± 0.071.
Still for that read-out and setting: as for N36P, the figure is 0.108 ± 0.13; as for N36T, -0.125 ± 0.061.
For E19R, the abundance fitness is -0.12 ± 0.064.
Still for that read-out and setting: as for E19H, the figure is -0.292 ± 0.15; as for E19N, -0.453 ± 0.18; as for L35G, 0.053 ± 0.081.
Turning to L35M, the abundance fitness came to 0.102 ± 0.12.
Same read-out and setting: under L35F stands 0.178 ± 0.13.
Turning to L35N, the abundance fitness worked out at 0.062 ± 0.14.
On the same count and under the same terms, as for L35C, the figure is -0.214 ± 0.14; as for L35E, 0.086 ± 0.086; as for R23M, -0.317 ± 0.12.
Same read-out and setting: as for R23T, the figure is -0.125 ± 0.089; as for R23W, -0.431 ± 0.21; as for R23P, -0.111 ± 0.13.
Still for that read-out and setting: as for L49H, the figure is -0.343 ± 0.062; as for Y22W, -0.014 ± 0.11.
As for I17V, the abundance fitness is -0.106 ± 0.099.
As for K38I, the abundance fitness was -0.703 ± 0.22.
K38Q: the abundance fitness is -0.263 ± 0.16.
Same read-out and setting: under K38V stands -0.447 ± 0.098; under R40L, 0.129 ± 0.074.
The same measure, in the same setting: as for R40E, the figure is 0.066 ± 0.071.
Still for that read-out and setting: as for R40Y, the figure is -0.163 ± 0.12; as for R40C, 0.221 ± 0.1; as for G20A, -0.251 ± 0.11.
Consider G20H, for which the abundance fitness was -0.119 ± 0.067.
For the variant G20C, the abundance fitness was -0.339 ± 0.071.
Still for that read-out and setting: under G20Y stands -0.174 ± 0.082; under H54G, -0.317 ± 0.12; under M39A, 0.226 ± 0.066.
Still for that read-out and setting: as for M39G, the figure is 0.223 ± 0.055; as for M39L, -0.123 ± 0.075; as for Y28Q, -0.246 ± 0.11.
The same measure, in the same setting: under Y28H stands -0.225 ± 0.095; under Y28L, -0.262 ± 0.098.
Consider Y28V, for which the abundance fitness was -0.144 ± 0.095.
For the variant Y28W, the abundance fitness was 0.053 ± 0.16.
With C6N, the abundance fitness was -0.508 ± 0.17.
Consider C6L, for which the abundance fitness is -0.597 ± 0.082.
The same measure, in the same setting: under C6R stands -0.266 ± 0.096.
As to H42L, the abundance fitness came out at 0.178 ± 0.084.
Same read-out and setting: as for H42M, the figure is -0.162 ± 0.16; as for G26S, 0.069 ± 0.071.
The same measure, in the same setting: as for C3F, the figure is -0.483 ± 0.11.
On the same count and under the same terms, as for D32V, the figure is -0.245 ± 0.093; as for D32Q, -0.336 ± 0.096.
On to D32F, for which the abundance fitness came to 0.006 ± 0.082.
Still for that read-out and setting: under Q13W stands -1.19 ± 0.19; under Q13K, -0.501 ± 0.39; under Q13G, 0.098 ± 0.071.
On the same count and under the same terms, under Q13S stands -0.128 ± 0.13; under A31Y, -0.226 ± 0.17; under A31W, -0.052 ± 0.12.
Same read-out and setting: as for A31M, the figure is 0.027 ± 0.087; as for K5A, 0.157 ± 0.11.
Consider K5E, for which the abundance fitness came to 0.038 ± 0.13.
On to K5Q, for which the abundance fitness was determined as 0.165 ± 0.12.
On the same count and under the same terms, as for K53R, the figure is -0.124 ± 0.06; as for K53C, -0.377 ± 0.16; as for K53Y, 0.252 ± 0.2.
Consider V45N, for which the abundance fitness is -0.155 ± 0.089.
On to R21H, for which the abundance fitness is -0.015 ± 0.055.
Same read-out and setting: as for R21F, the figure is -0.01 ± 0.14; as for R21N, -0.259 ± 0.18; as for R21Y, -0.008 ± 0.11.
